Test results: publication PMC5148612

B1: Atg12~Atg5-Atg16-mCherry complex [modified: conjugated to Atg5 (Atg12~Atg5 protein conjugate) | conjugated to Atg12; conjugated to Atg5 (Atg12~Atg5 protein conjugate); conjugated to Atg12] [S. cerevisiae] / … (parent)
chain 1: MSRILESENETESDESSIISTNNGTAMERSRNNQELRSSPHTVQNRLELFSRRLSQLGLASDISVDQQVEDSSSGTYEQEETIKTNAQTSKQKSHKDEKNIQKIQIKFQPIGSIGQLKPSVCKISMSQSFAMVILFLKRRLKMDHVYCYINNSFAPSPQQNIGELWMQFKTNDELIVSYCASVAFG
chain 2: MNDIKQLLWNGELNVLVSIDPSFLMKGSPREIAVLRIRVPRETYLVNYMPLIWNKIKSFLSFDPLTDSEKYFWFEHNKTPIPWNYPVGVLFDCLAGKSATFTTSFENQVKDVLTFLRIHLVMGDSLPPTIIPIASSKTQAEKFWFHQWKQVCFILNGSSKAIMSLSVNEARKFWGSVITRNFQDFIEISNKISSSRPRHIPLIIQTSRTSGTFRISQPTISMTGVNPTLKDIEGDILDVKEGINGNDVMVICQGIEIPWHMLLYDLYSKLRSFDGFLYITLVPIKGGDKASSEL
chain 3: MGNFIITERKKAKEERSNPQTDSMDDLLIRRLTDRNDKEAHLNELFQDNSGAIGGNIVSHDDALLNTLAILQKELKSKEQEIRRLKEVIALKNKNTERLNDELISGTIENNVLQQKLSDLKKEHSQLVARWLKKTEKETEAMNSEIDGTK
chain 4: MEEQREILEQLKKTLQMLTVEPSKNNQIANEEKEKKENENSWCIL
chain 5: MNNSKTNQQMNTSMGYPLTVYDECNKFQLIVPTLDANIMLWCIGQLSLLNDSNGCKHLFWQPNDKSNVRILLNNYDYGHLFKYLQCQRKCSVYIGEGTLKKYNLTISTSFDNFLDLTPSEEKESLCREDAHEDPVSPKAGSEEEISPNSTSNVVVSRECLDNFMKQLLKLEESLNKLELEQKVTNKEPNHRISGTIDIPEDRSELVNFFTELKTVKQLEDVFQRYHDYERLSQECDSKTEIASDHSKKETKIEVEPPNERSLQITMNQRDNSLYFQLFNNTNSVLAGNCKLKFTDAGDKPTTQIIDMGPHEIGIKEYKEYRYFPYALDLEAGSTIEIENQYGEVIFLGKYGSSPMINLRPPSRLSAESLQASQEPFYSFQIDTLPELDDSSIISTSISLSYDGDDNEKALTWEEL

Variants of: B1
Test: microscopy-based bead recruitment assay (mCherry signal at cargo mimetic beads)
Conditions: with GST-prApe1(1–45) + Atg19 [S. cerevisiae]; 25 mM HEPES pH 7.5, 150 NaCl and 1 mM DTT; parent: 100; read off a plot

percent of parent	Variant
55%	chain 2 K57E N84E
70%	chain 2 N84E
68%	chain 2 K57E
